From patent publication US20240287172A1 (SCIRHOM, published 2024)

T1: hiR2-FL-Q437D-T7 (human, UniProt Q6PJF5 1-856)
T1 sequence: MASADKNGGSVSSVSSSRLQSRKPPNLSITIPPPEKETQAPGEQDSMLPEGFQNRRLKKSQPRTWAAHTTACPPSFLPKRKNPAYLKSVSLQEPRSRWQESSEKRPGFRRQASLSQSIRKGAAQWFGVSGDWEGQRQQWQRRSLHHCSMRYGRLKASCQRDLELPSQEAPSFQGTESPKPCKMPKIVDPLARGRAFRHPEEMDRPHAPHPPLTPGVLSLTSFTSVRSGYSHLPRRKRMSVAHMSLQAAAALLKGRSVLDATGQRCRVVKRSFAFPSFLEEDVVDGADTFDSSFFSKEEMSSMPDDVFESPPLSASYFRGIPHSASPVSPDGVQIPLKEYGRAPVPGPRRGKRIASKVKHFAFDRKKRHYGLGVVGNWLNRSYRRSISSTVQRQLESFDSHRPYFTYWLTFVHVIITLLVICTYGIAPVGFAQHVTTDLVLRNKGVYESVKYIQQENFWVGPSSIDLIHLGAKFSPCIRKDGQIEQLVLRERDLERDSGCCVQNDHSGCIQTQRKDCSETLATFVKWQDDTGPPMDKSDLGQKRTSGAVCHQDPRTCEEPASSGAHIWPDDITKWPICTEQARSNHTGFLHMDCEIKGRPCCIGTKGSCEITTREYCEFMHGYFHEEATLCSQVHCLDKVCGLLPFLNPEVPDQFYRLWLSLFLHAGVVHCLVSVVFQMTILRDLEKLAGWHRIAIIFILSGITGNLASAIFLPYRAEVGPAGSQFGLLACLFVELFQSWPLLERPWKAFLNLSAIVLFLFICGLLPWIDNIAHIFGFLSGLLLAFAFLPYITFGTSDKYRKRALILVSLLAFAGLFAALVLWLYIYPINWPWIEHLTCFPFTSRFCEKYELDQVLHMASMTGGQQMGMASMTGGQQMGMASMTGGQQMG

B1: antibody 48 (antibody, V domains shown)
VH: QVQLQQSGTELVRPGTSVKVSCKASGYAFTNYLIEWVKQRPGQGLEWIGVINPGSGFTKYNEKFKGKATLTADKSSSTVYMHLSSLTSEDSAVYFCARGLYRAMDYWGQGTSVTVSS
VL: DIQMTQSPASQSASLGESVTITCLASQTIATWLAWYQQKPGKSPQLLIYGATTLADGVPSRFSGGGSGTKFSFKISSLQAEDFVSYYCQQLYSTPYTFGGGTKLEIK
notes: mouse IgG, kappa light chain; also called clone #48; purified antibody 48
B2: antibody 50 (antibody, V domains shown)
VH: QVQLQQSGAELVRPGASVKVSCKASGYAFSNYLIEWVKQRPGQGLEWIGVINPGSGFTKYNEKFKGKATLTADKSSSTAYMQLSSLTSEDSAVYFCARGLYRAMDYWGQGTSVTVSS
VL: DIQMTQSPASQSASLGESVTITCLASQTIGTWLAWYQQKPGKSPQLLIYAAASLADGVPSRFSGGGSGTKFSFKISSLQAEDFVNYYCQQIYSTPYTFGGGTKLEIK
notes: mouse IgG, kappa light chain; also called clone #50; purified antibody 50

Target: T1, hiR2-FL-Q437D-T7
Experiment: FACS, MEF-DKO cells, 3 µg/ml
Text: In brief, immortalized MEF-DKO-hiR2-FL-A431S-T7, MEF-DKO-hiR2-FL-V434E-T7, MEF-DKO-hiR2-FL-T436V-T7, MEF-DKO-hiR2-FL-Q437D-T7, MEF-DKO-hiR2-FL-L438S-T7, MEF-DKO-hiR2-FL-S448N-T7, MEF-DKO-hiR2-FL-I452V-T7, MEF-DKO-hiR2-FL-I464E-T7, MEF-DKO-hiR2-FL-D465A-T7, MEF-DKO-hiR2-FL-I477M-T7, MEF-DKO-hiR2-FL-K479Q-T7, MEF-DKO-hiR2-FL-G481P-T7, MEF-DKO-hiR2-FL-I483V-T7, MEF-DKO-hiR2-FL-E484H-T7, MEF-DKO-hiR2-FL-Q485S-T7, MEF-DKO-hiR2-FL-L486F-T7, MEF-DKO-hiR2-FL-V487I-T7, MEF-DKO-hiR2-FL-R489S-T7, MEF-DKO-hiR2-FL-E490A-T7, MEF-DKO-hiR2-FL-D492E-T7, MEF-DKO-hiR2-FL-L493R-T7, MEF-DKO-hiR2-FL-R495K-T7 and MEF-DKO-hiR2-FL-D496H-T7 cells were harvested with 10 mM EDTA in PBS, washed and resuspended in FACS buffer (PBS, 3% FBS, 0.05% sodium azide), and seeded in Nunc U-bottom 96-well plates (Thermo Fisher Scientific, USA) at approximately 1×10⁵ cells per well. To pellet cells and remove supernatants, the plates were centrifuged at 1,500 rpm and 4° C. for 3 minutes. For primary staining, cells were resuspended in 100 μl per well of either FACS buffer alone (controls) or the purified antibodies 3, 5, 16, 22, 34, 42, 43, 44, 48, and 50 of the invention at 3 μg/ml in FACS buffer and incubated on ice for 1 hour. Afterwards, plates were centrifuged at 1,500 rpm and 4° C. for 3 minutes and washed twice with 200 μl per well of FACS buffer. For secondary staining, cells were spun down and resuspended in 100 μl per well of PE-conjugated goat anti-mouse IgG F(ab′)2 detection fragment (Dianova, Germany) diluted 1:100 in FACS buffer. Protected from light, the cell suspensions were incubated on ice for 1 hour. Plates were then centrifuged at 1,500 rpm and 4° C. for 3 minutes and washed three times with 200 μl per well of FACS buffer. Finally, cells were resuspended in 150 μl per well of FACS buffer and analyzed using a BD Accuri™ C6 Plus flow cytometer (Becton Dickinson, Germany).

| Binder | loss of binding vs wild type [%] |
| --- | --- |
| B1 | ≥ 30 |
| B2 | ≥ 30 |
